According to article PMC8498969, “An Integrated Systems Biology Approach Identifies the Proteasome as A Critical Host Machinery for ZIKV and DENV Replication” (Genomics, Proteomics & Bioinformatics, 2021):

Key:
PLEK on the HuProt array = target: T1, PLEK on the HuProt array (human, UniProt P08567 1-350); assay: peptide or protein array; conditions: both partners purified
T1 construct: PLEK (pleckstrin), human; array proteins are said to come from full-length genes; source: immobilised on the Human Proteome Microarray v3.0 (HuProt array)
T1 sequence (looked up): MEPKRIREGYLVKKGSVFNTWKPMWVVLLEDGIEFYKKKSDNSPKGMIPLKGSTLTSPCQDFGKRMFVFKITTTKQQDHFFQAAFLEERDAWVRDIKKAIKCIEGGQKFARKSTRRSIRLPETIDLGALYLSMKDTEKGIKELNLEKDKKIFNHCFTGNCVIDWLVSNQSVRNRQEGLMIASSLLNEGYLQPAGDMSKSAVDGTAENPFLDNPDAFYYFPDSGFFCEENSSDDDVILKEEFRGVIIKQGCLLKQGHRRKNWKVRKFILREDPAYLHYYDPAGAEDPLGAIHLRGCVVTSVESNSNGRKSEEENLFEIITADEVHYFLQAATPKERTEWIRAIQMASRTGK

[1] = target: T2, DDX49 on the HuProt array (human, UniProt Q9Y6V7 1-483); assay: peptide or protein array; conditions: both partners purified
T2 construct: DDX49, human; array proteins are said to come from full-length genes; source: immobilised on the Human Proteome Microarray v3.0 (HuProt array)
T2 sequence (looked up): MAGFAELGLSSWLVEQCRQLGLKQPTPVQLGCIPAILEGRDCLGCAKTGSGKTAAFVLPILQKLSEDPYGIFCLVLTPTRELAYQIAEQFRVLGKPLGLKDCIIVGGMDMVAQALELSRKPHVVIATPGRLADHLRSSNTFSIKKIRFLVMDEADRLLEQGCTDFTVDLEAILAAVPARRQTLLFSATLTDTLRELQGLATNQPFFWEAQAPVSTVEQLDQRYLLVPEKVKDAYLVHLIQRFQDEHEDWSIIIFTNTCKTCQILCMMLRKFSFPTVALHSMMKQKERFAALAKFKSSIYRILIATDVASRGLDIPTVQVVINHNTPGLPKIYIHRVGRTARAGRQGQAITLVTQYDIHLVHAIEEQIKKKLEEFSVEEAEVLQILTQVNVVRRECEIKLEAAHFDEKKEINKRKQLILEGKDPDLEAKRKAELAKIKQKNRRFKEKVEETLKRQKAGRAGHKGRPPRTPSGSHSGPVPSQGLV

B1: ZIKV-NS2A, N-terminal GST fusion, Cy5-labelled (natural protein)
chain: GSTDHMDHFSLGVLVILLMVQEGLKKRMTTKIIMSTSMAVLVVMILGGFSMSDLAKLVILMGATFAEMNTGGDVAHLALVAAFKVRPALLVSFIFRANWTPRESMLLALASCLLQTAISALEGDLMVLINGFALAWLAIRAMAVPRTDNIALPILAALTPLARGTLLVAWRAGLATCGGIMLLSLKGKGSVKKNLPFVMALGLTAVRVVDPINVVGLLLLTRSGKR
modifications: Cy5 (NHS-tethered dye), sites not stated
notes: source: yeast (vector pEGH-A), purified on glutathione beads; not shown: GST, N-terminal, kept
binding result (PLEK on the HuProt array): binds

B2: ZIKV-NS4B, N-terminal GST fusion, Cy5-labelled (natural protein)
chain: NELGWLERTKNDIAHLMGRREEGATMGFSMDIDLRPASAWAIYAALTTLITPAVQHAVTTSYNNYSLMAMATQAGVLFGMGKGMPFMHGDLGVPLLMMGCYSQLTPLTLIVAIILLVAHYMYLIPGLQAAAARAAQKRTAAGIMKNPVVDGIVVTDIDTMTIDPQVEKKMGQVLLIAVAISSAVLLRTAWGWGEAGALITAATSTLWEGSPNKYWNSSTATSLCNIFRGSYLAGASLIYTVTRNAGLVKRR
modifications: Cy5 (NHS-tethered dye), sites not stated
notes: also called SN4B; source: yeast (vector pEGH-A), purified on glutathione beads; not shown: GST, N-terminal, kept
binding result [1]: binds
